Laboratory results: patent publication US20210047402A1 (TENEOBIO, published 2021)

T1: human CD22 (human, UniProt P20273 20-687, limits assumed)
T1 construct: also called SIGLEC-2; human CD22 protein
T1 sequence (looked up): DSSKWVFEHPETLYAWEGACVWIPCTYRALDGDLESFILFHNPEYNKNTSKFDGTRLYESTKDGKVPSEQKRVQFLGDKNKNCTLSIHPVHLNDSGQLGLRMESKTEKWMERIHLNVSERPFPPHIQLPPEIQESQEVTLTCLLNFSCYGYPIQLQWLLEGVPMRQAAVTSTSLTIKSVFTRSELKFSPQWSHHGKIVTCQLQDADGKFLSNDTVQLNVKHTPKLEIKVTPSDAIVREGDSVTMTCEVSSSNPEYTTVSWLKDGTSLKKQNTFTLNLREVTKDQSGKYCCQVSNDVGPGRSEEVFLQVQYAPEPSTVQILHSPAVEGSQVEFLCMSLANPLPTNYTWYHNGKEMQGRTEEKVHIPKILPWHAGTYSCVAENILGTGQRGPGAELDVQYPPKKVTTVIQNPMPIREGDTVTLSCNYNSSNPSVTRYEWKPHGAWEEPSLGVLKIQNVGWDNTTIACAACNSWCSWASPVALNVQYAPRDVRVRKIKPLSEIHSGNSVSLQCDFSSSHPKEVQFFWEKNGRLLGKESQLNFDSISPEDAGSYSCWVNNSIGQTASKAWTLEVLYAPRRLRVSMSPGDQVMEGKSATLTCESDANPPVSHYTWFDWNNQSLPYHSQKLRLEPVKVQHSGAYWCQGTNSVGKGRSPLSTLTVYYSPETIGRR


Target: T1, human CD22
Experiment: ELISA protein and cell-binding assays

| binding result | Binder |
| --- | --- |
| binds | anti-CD22 heavy chain-only antibody Clone ID 335206 (antibody, V domains shown, Heavy chain-only antibody (UniAb), no light chain) VH: QLQLQESGPGLVKPSETLSLTCTVSGDSISSGDYYWGWIRQPPGKGLEWIGHIYYSGATYYNPSLKNRVTISVDTSKNQFSLKLSSVTAADTAVYYCTREDSSNWRSRGQGTLVTVSS |
| binds | anti-CD22 heavy chain-only antibody Clone ID 335189 (antibody, V domains shown, Heavy chain-only antibody (UniAb), no light chain) VH: QLQLQESGPGLVKPSETLSLTCTVSGGSISSSSYYWGWIRQPPGKGLEWIGSVYYTGATYYNPSLKNRVTISVDTSKNQFSLKLSSVTAADTAVYYCTRDDSSNWRSRGQGTLVTVSS |
| binds | anti-CD22 heavy chain-only antibody Clone ID 335171 (antibody, V domains shown, Heavy chain-only antibody (UniAb), no light chain) VH: QLQLQESGPGLVKPSETLSLTCTVSGGSISSSSYYWGWIRQPPGKGLEWIGSIYYSGATYYNPSLKNRVTISVDTSRNQFSLNLSSVTAADTAVYYCTRDDSSNWRSRGQGTLVTVSS |
| binds | anti-CD22 heavy chain-only antibody Clone ID 335160 (antibody, V domains shown, Heavy chain-only antibody (UniAb), no light chain) VH: QLQLQESGPGLVKPSETLSLTCTVSGDSISSGDYYWGWIRQPPGKGLEWIGSIYYSGATYYNPSLKNRVTISVDTSKNQFSLKLSSVTAADTAVYYCTRDDSSNWRSRGQGTLVTVSS |
| binds | anti-CD22 heavy chain-only antibody Clone ID 335161 (antibody, V domains shown, Heavy chain-only antibody (UniAb), no light chain) VH: QLQLQESGPGLVKPSETLSLTCTVSGDSISSGDYYWGWIRQPPGKGLEWIGHIYYSGATYYNPSLENRVTISVDTSKNQFSLKLSSVTAADTAVYYCTRDDSSNWRSRGQGTLVTVSS |
| binds | anti-CD22 heavy chain-only antibody Clone ID 335173 (antibody, V domains shown, Heavy chain-only antibody (UniAb), no light chain) VH: QLQLQESGPGLVKPSETLSLTCTVSGGSITSSSYYWGWIRQPPGKGLEWIGSIYYSGSTYYNPSLKSRVTISVDTSKNQFSLKLSSVTAADTAVYYCTRDDSSNWRSRGQGTLVTVSS |
| binds | anti-CD22 heavy chain-only antibody Clone ID 335170 (antibody, V domains shown, Heavy chain-only antibody (UniAb), no light chain) VH: QLQLQESGPGLVKPSETLSLTCTVSGDSISSGDYYWGWIRQPPGKGLEWIGHIYYSGATYYNPSLKNRVTISVDTSRNQFSLKLSSVTAADTAVYYCTRDDSSNWRSRGQGTLVTVSS |
| binds | anti-CD22 heavy chain-only antibody Clone ID 335201 (antibody, V domains shown, Heavy chain-only antibody (UniAb), no light chain) VH: QLQLQESGPGLVKPSETLSLTCTVSGDSISSGDYYWGWIRQPPGKGLEWIGHIYYSGVTYYNPSLKNRVTISVDTSRNQFSLKLSSVTAADTAVYYCTREDSSNWRSRGQGTLVTVSS |
| binds | anti-CD22 heavy chain-only antibody Clone ID 335182 (antibody, V domains shown, Heavy chain-only antibody (UniAb), no light chain) VH: QLQLQESGPGLVKPSETLSLTCTVSGDSISSGDYYWGWIRQPPGKGLEWIGNIYYSGATYYNPSLKNRVTISVDTSKNQFSLKLSSVTAADTAVYYCTRDDSSNWRSRGQGTLVTVSS |
| binds | anti-CD22 heavy chain-only antibody Clone ID 335185 (antibody, V domains shown, Heavy chain-only antibody (UniAb), no light chain) VH: QLQLQESGPGLVKPSETLSLTCTVSGDSISSGDYYWGWIRQPPGKGLEWIGHIYYSGATYYNPSLKNRVTISVDTSRNQFSLNLSSVTAADTAVYYCTREDSSNWRSRGQGTLVTVSS |
| binds | anti-CD22 heavy chain-only antibody Clone ID 335150 (antibody, V domains shown, Heavy chain-only antibody (UniAb), no light chain) VH: QLQLQESGPGLVKPSETLSLTCTVSGDSISSGDYYWGWIRQSPEKGLEWIGHIYYSGVTYYNPSLKNRVTISVDTSKNQFSLKLSSVTAADTAVYYCKRDDSSNWRSRGQGTLVTVSS |
| binds | anti-CD22 heavy chain-only antibody Clone ID 335158 (antibody, V domains shown, Heavy chain-only antibody (UniAb), no light chain) VH: QLQLQESGPGLVKPSETLSLTCTVSGGSISSGDYYWGWIRQPPGKGLEWIGHIYYSGATYYNPSLKNRVTISVDTSRNQFSLKLSSVTAADTAVYYCTRDDSSNWRSRGQGTLVTVSS |
| binds | anti-CD22 heavy chain-only antibody Clone ID 324508 (antibody, V domains shown, Heavy chain-only antibody (UniAb), no light chain) VH: QLQLQESGPGLVKPSETLSLTCTVSGGSISSGDYYWGWIRQPPGKGLEWIGHIYYSGATYYNPSLENRVTISVDTSKNQFSLKLSSVTAADTAVYYCTRDDSSNWRSRGQGTLVTVSS |
| binds | anti-CD22 heavy chain-only antibody Clone ID 335176 (antibody, V domains shown, Heavy chain-only antibody (UniAb), no light chain) VH: QLQLQESGPGLVKPSETLSLTCTVSGDSISSGDYYWGWIRQPPGKGLEWIGHIYYSGATYYNPSLKNRVTISVDTSKNQFSLKLSSVTAADTAVYYCTRDDSSNWRSRGQGTLVTVSS |
| binds | anti-CD22 heavy chain-only antibody Clone ID 335187 (antibody, V domains shown, Heavy chain-only antibody (UniAb), no light chain) VH: QLQLQESGPGLVKPSETLSLTCTVSGGSISSSSYYWGWIRQPPGKGLEWIGHIYYSGATYYNPSLKNRVTISVDTSKNQFSLKLSSVTAADTAVYYCTRDDSSNWRSRGQGTLVTVSS |
| binds | anti-CD22 heavy chain-only antibody Clone ID 335188 (antibody, V domains shown, Heavy chain-only antibody (UniAb), no light chain) VH: QLQLQESGPGLVKPSETLSLTCTVSGGSISSSSYYWGWIRQPPGKGLEWIGHIYYSGVTYYNPSLKNRVTISVDTSKNQFSLKLSSVTAADTAVYYCTRDDSSNWRSRGQGTLVTVSS |
| binds | anti-CD22 heavy chain-only antibody Clone ID 335181 (antibody, V domains shown, Heavy chain-only antibody (UniAb), no light chain) VH: QLQLQESGPGLVKPSETLSLTCTVSGDSISSGGYYWGWIRQPPGKGLEWIGHIYYSGATYYNPSLKNRVTISVDTSKNQFSLKLSSVTAADTAVYYCTRDDSSNWRSRGQGTLVTVSS |
| binds | anti-CD22 heavy chain-only antibody Clone ID 335195 (antibody, V domains shown, Heavy chain-only antibody (UniAb), no light chain) VH: QLQLQESGPGLVKPSETLSLTCTVSGGSISSSSYYWGWIRQPPGKGLEWIGSIYYSGATYYNPSLKNRVTISVDTSRNQFSLNLSSVTAADTAMYYCTREDSSNWRSRGQGTLVTVSS |
| binds | anti-CD22 heavy chain-only antibody Clone ID 335186 (antibody, V domains shown, Heavy chain-only antibody (UniAb), no light chain) VH: QLQLQESGPGLVKPSETLSLTCTVSGGSISSSSYYWGWIRQPPGKGLEWIGSIYYSGSTYYNPSLKSRVTISVDTSKNQFSLKLSSVTAADTAVYYCTRDDSSNWRSRGQGTLVTVSS |
| binds | anti-CD22 heavy chain-only antibody Clone ID 335159 (antibody, V domains shown, Heavy chain-only antibody (UniAb), no light chain) VH: QLQLQESGPGLVKPSETLSLTCTVSGGSISSSSYYWGWIRQPPGKGLEWIGHIYYSGVTYYNPSLKNRVTISVDTSKNQFSLKLSSVTAADTAAYYCTRDDSSNWRSRGQGTLVTVSS |
| binds | anti-CD22 heavy chain-only antibody Clone ID 335154 (antibody, V domains shown, Heavy chain-only antibody (UniAb), no light chain) VH: QLQLQESGPGLVKPSETLSLTCTVSGDSISSGDYYWGWIRQPPGKGLEWIGHIYYSGVTYYNPSLKNRVTISVDTSKNQFSLKLSSVTAADTAVYYCTRDDSSNWRSRGQGTLVTVSS |
| binds | anti-CD22 heavy chain-only antibody Clone ID 335151 (antibody, V domains shown, Heavy chain-only antibody (UniAb), no light chain) VH: QLQLQESGPGLVKPSETLSLTCTVSGDSISSGDYYWGWIRQPPGKGLEWIGHIYYSGATYYNPSLKNRVTISVDTSRNQFSLNLSSVTAADTAVYYCTRDDSSNWRSRGQGTLVTVSS |
| binds | anti-CD22 heavy chain-only antibody Clone ID 335166 (antibody, V domains shown, Heavy chain-only antibody (UniAb), no light chain) VH: QLQLQESGPGLVKPSETLSLTCTVSGGSISSSSYYWGWIRQPPGKGLEWIGSIYYSGSTYYNPSLKNRVTISVDTSRNQFSLNLSSVTAADTAVYYCTRDDSSNWRSRGQGTLVTVSS |
| binds | anti-CD22 heavy chain-only antibody Clone ID 335162 (antibody, V domains shown, Heavy chain-only antibody (UniAb), no light chain) VH: QLQLQESGPGLVKPSETLSLTCTVSGGSIISSSYYWGWIRQPPGKGLEWIGSIYYSGSAYYHPSLKSRVTISIDTSKNQFSLKLSSVTAADTAVYYCARDDSSNWRSRGQGTLVTVSS |
